This passage reports Kd results from PMC4532469.

The target in assay [1] is LTBP-2 C(H) F2, sub-fragment of human LTBP-2C(H) (six tandem EGF-like motifs, EGFs 9-14) (human). As to the kind of experiment: ELISA; solid phase binding assay, saturation curve: LTBP-2 or fragment coated on wells, increasing FGF-2 (0–30 ng/ml; 0–1.8 or 0–1.5 nM), 3 h at 37°C; BSA signal subtracted, bound FGF-2 from a standard ELISA curve; Kd by non-linear regression (GraphPad Prism) for a single binding site (Fig 3, Fig 4B, D, E). (ELISA stands for enzyme-linked immunosorbent assay.)

The target in assay [2] is recombinant human LTBP-2 central fragment LTBP-2C(H) (human). The description is as above.

On to “recombinant human fibroblast growth factor-2 (FGF-2) (from UniProt P09038 143-288) (ligand)”, for which the values for the Kd in assay [1] and in assay [2] were 1.03 nM and 1.02 nM, respectively.

The Kd is the equilibrium constant for the complex coming apart.
